According to patent US20130330328A1 (AstraZeneca / MedImmune, published 2013):

Experiments:
human CD20 (human) [1] = biological target: human CD20 (human) (UniProt P11836); test: flow cytometry, direct binding to Farage (DLCL) cells, labeled goat anti-human secondary
human CD20 (human) [2] = biological target: human CD20 (human) (UniProt P11836); test: flow cytometry, direct binding to Nalm-6 (ALL) cells, labeled goat anti-human secondary
human CD20 (human) [3] = biological target: human CD20 (human) (UniProt P11836); test: cell-based or functional assay
human CD20 (human) [4] = biological target: human CD20 (human) (UniProt P11836); test: flow cytometry, direct binding to Granta-519 (NHL/MCL) cells, labeled goat anti-human secondary
human CD20 (human) [5] = biological target: human CD20 (human) (UniProt P11836); test: flow cytometry, direct binding to Namalwa (Burkitt) cells, labeled goat anti-human secondary
human CD20 (human) [6] = biological target: human CD20 (human) (UniProt P11836); test: flow cytometry, direct binding to Karpas-422 (NHL) cells, labeled goat anti-human secondary
human CD20 (human) [7] = biological target: human CD20 (human) (UniProt P11836); test: flow cytometry, direct binding to Raji (Burkitt) cells, labeled goat anti-human secondary
human CD20 (human) [8] = biological target: human CD20 (human) (UniProt P11836); test: flow cytometry, direct binding to JVM-13 (CLL) cells, labeled goat anti-human secondary
human CD20 (human) [9] = biological target: human CD20 (human) (UniProt P11836); test: flow cytometry, direct binding to Toledo (DLCL) cells, labeled goat anti-human secondary
human CD19 = biological target: T1, human CD19 (human, UniProt P15391 20-556); test: cell-based or functional assay
T1 sequence (looked up): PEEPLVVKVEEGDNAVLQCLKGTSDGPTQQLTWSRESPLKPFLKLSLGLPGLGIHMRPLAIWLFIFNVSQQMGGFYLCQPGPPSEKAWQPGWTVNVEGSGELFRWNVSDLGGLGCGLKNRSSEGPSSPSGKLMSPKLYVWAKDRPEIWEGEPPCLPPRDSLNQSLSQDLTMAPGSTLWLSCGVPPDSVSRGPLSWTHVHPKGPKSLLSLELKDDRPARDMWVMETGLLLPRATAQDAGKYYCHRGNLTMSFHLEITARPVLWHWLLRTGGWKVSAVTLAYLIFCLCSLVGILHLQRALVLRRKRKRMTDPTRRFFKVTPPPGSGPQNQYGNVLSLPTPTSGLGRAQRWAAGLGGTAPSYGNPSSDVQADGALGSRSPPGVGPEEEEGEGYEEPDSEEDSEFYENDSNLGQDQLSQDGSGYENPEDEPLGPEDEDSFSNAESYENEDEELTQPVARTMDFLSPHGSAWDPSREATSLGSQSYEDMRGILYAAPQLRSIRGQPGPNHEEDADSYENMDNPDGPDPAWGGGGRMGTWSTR

human CD20 (human), sequence (P11836 whole entry): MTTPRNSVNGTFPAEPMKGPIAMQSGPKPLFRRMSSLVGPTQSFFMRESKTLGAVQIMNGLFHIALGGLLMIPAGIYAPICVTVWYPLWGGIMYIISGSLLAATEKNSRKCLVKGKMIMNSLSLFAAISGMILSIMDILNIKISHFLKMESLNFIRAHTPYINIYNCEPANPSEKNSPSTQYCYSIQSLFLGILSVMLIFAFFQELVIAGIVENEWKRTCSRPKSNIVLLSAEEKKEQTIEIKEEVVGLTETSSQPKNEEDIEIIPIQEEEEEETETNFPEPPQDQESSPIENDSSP

rituximab (antibody)
MFI at 1 µg/ml (human CD20 (human) [1]): 581 MFI | MFI at 1 µg/ml (human CD20 (human) [2]): 26 MFI | % max. cell kill at 10 ug/ml, DB (DLCL) cells (human CD20 (human) [3]): 46% | % max. cell kill at 10 ug/ml, Daudi (Burkitt) cells (human CD20 (human) [3]): 51% | % max. cell kill at 10 ug/ml, Farage (DLCL) cells (human CD20 (human) [3]): 54% | % max. cell kill at 10 ug/ml, JVM-2 (CLL) cells (human CD20 (human) [3]): 49% | % max. cell kill at 10 ug/ml, JVM-13 (CLL) cells (human CD20 (human) [3]): 50% | % max. cell kill at 10 ug/ml, Karpas-422 (NHL) cells (human CD20 (human) [3]): 5% | % max. cell kill at 10 ug/ml, MeC2 (CLL) cells (human CD20 (human) [3]): 42% | % max. cell kill at 10 ug/ml, Nalm-6 (ALL) cells (human CD20 (human) [3]): 14% | % max. cell kill at 10 ug/ml, Namalwa (Burkitt) cells (human CD20 (human) [3]): 7% | % max. cell kill at 10 ug/ml, Raji (Burkitt) cells (human CD20 (human) [3]): 40% | % max. cell kill at 10 ug/ml, Toledo (DLCL) cells (human CD20 (human) [3]): 55% | ADCC EC50 [ng/ml], DB (DLCL) cells (human CD20 (human) [3]): 0.24 ng/mL | ADCC EC50 [ng/ml], Daudi (Burkitt) cells (human CD20 (human) [3]): 0.041 ng/mL | ADCC EC50 [ng/ml], Farage (DLCL) cells (human CD20 (human) [3]): 0.0113 ng/mL | ADCC EC50 [ng/ml], JVM-2 (CLL) cells (human CD20 (human) [3]): 0.0586 ng/mL | ADCC EC50 [ng/ml], JVM-13 (CLL) cells (human CD20 (human) [3]): 0.0317 ng/mL | ADCC EC50 [ng/ml], Karpas-1106P cells (human CD20 (human) [3]): 0.0137 ng/mL | ADCC EC50 [ng/ml], MeC2 (CLL) cells (human CD20 (human) [3]): 0.007 ng/mL | ADCC EC50 [ng/ml], RL (NHL) cells (human CD20 (human) [3]): 0.0296 ng/mL | ADCC EC50 [ng/ml], Raji (Burkitt) cells (human CD20 (human) [3]): 0.008 ng/mL | ADCC EC50 [ng/ml], Toledo (DLCL) cells (human CD20 (human) [3]): 0.0319 ng/mL | EC50, FACS-based ADCC assay with patient CLL samples (human CD20 (human) [3]): 0.639 to 0.682 nM | MFI at 1 µg/ml (human CD20 (human) [4]): 403 MFI | MFI at 1 µg/ml (human CD20 (human) [5]): 298 MFI | MFI at 1 µg/ml (human CD20 (human) [6]): 45 MFI | MFI at 1 µg/ml (human CD20 (human) [7]): 823 MFI | MFI at 1 µg/ml (human CD20 (human) [8]): 60 MFI | MFI at 1 µg/ml (human CD20 (human) [9]): 312 MFI

B1: afucosylated anti-CD19 mAb 16C4 (16C4-afuc) (antibody, IgG1, V domains shown)
VH: EVQLVESGGGLVQPGGSLRLSCAASGFTFSSSWMNWVRQAPGKGLEWVGRIYPGDGDTNYNVKFKGRFTISRDDSKNSLYLQMNSLKTEDTAVYYCARSGFITTVRDFDYWGQGTLVTVSS
VL: EIVLTQSPDFQSVTPKEKVTITCRASESVDTFGISFINWFQQKPDQSPKLLIHEASNQGSGVPSRFSGSGSGTDFTLTINSLEAEDAATYYCQQTKEVPFTFGGGTKVEIK
ADCC EC50 [ng/ml], Daudi (Burkitt) cells (human CD19): 0.0031 ng/mL | ADCC EC50 [ng/ml], Farage (DLCL) cells (human CD19): 0.0141 ng/mL | ADCC EC50 [ng/ml], JVM-2 (CLL) cells (human CD19): 0.188 ng/mL | ADCC EC50 [ng/ml], JVM-13 (CLL) cells (human CD19): 0.0368 ng/mL | ADCC EC50 [ng/ml], Karpas-422 (NHL) cells (human CD19): 0.0181 ng/mL | ADCC EC50 [ng/ml], Karpas-1106P cells (human CD19): 0.009 ng/mL | ADCC EC50 [ng/ml], MeC2 (CLL) cells (human CD19): 0.0039 ng/mL | ADCC EC50 [ng/ml], Nalm-6 (ALL) cells (human CD19): 0.0199 ng/mL | ADCC EC50 [ng/ml], Namalwa (Burkitt) cells (human CD19): 0.012 ng/mL | ADCC EC50 [ng/ml], Oci-LY19 (DLCL) cells (human CD19): 0.0163 ng/mL | ADCC EC50 [ng/ml], RL (NHL) cells (human CD19): 0.0073 ng/mL | ADCC EC50 [ng/ml], Raji (Burkitt) cells (human CD19): 0.003 ng/mL | ADCC EC50 [ng/ml], Toledo (DLCL) cells (human CD19): 0.0075 ng/mL
